The results in this text go back to the DeepSol protein solubility set.

This series is described as follows: soluble on expression in E. coli; label from the status in PepcDB or PDB records.
Take “MKILVTSGGTSEAIDSVRSITNHSTGHLGKIITETLLSAGYEVCLITTKRALKPEPHPNLSIREITNTKDLLIEMQERVQDYQVLIHSMAVSDYTPVYMTGLEEVQASSNLKEFLSKQNHQAKISSTDEVQVLFLKKTPKIISLVKEWNPTIHLIGFKLLVDVTEDHLVDIARKSLIKNQADLIIANDLTQISADQHRAIFVEKNQLQTVQTKEEIAELLLEKIQAYHSLEHHHHHH”: the “soluble on expression in E. coli” value is reported as “soluble”.

Consider “MKISLGPLLYCWEKQQVIDFYQQVANSQIPLVYLGEAVCSRRRELKWGDYLELAKMLKSAGKDVVLSTLALIEAPSEYTELKRQVDNGEFMIEANDMAAVYLAKEHKQPFVCGASINNYNRASLDILQRLGMQRFVMPVELSKTWLSQVVDKKPSFEVEVLGHGYLPLAHSARCFTARHSQLAKDSCETVCRQYSKGLLAQTQEAQPLLRLNGIQTQSASCVDLRSEISAMVKIGVDVFRVSPSSLACIAKADALVEALNSGAMDAQYPLSDEHCNGYWFGEAGLKSLS”, for which the “soluble on expression in E. coli” value is “soluble”.

Regarding “MKITAVETLYCNAGWRNLSFLKISTDEGLVGWAEFPENHINNVLSPLVRHMGQQILGEDPRRIHPVIDRLRRAAWGVPFGAVSRAIGAIENALVDIKAKAIGVPAYELIGGRMRDDIRMYWSHCGSYHVTNWKDLGVPRITSLDDVKSLGRQVRESGYHALKTNLMMFDRPEPYMYRPGFAGGSGDPDRNPLRSAISAAVDQMTAFREGAGPDIGLKLDVNFNFRPEGYIRLAHALEPVDLDWLEIDNFDAKAVAQVRRASRIPIASCETLSGRRQLRPYLEEQAVDVVIIDVPWNGIYEAMRMAALADSFEVNVATHNFCGPIATLISAHFCAAVPNFRVMEMDVVQVPWTNDLITNPPTIERGYMRLPDGPGWGADVNEEALRAHPPVAAKH”, the “soluble on expression in E. coli” value is “not soluble”.

Turning to “MKITPLDIQQQQFKGKMLGGIDPEDVDSFLQLVAQEMEGLIRENTDLREQCRKAAADAEQTARQERELREAMLAAQKITEEMKANAQKEASLIVSEAEVKAEKILVDAERRLGQLNEQLQDLRRQKLQFESAFKALLDTHYKMISLEDA”, the “soluble on expression in E. coli” value is reported as “not soluble”.

Regarding “MKITVIVPTYRRTKDLTRCLESLEKQSRPADEVLVVVRDTDVETWQFLETIAPHSLPLHTTTVRVPGVVAAMNAGLDIAQGDIIAFTDDDAAPHSNWLAQIETHFLAHEQIAGVGGRDWVYHGDRLEDGTCPVVGQVHWFGRVIGNHHIGIGKPREVDVLKGVNMSFRRSAVHGLRFDQRMLGTGAQVHFEVAFCLALKRAGWKLIYDPQIGVNHYPAQRFLEHHHHHH”, the “soluble on expression in E. coli” value is listed as “not soluble”.

“MKIVIAPDSYKESLSALEVATAIEQGFREIWPDADYLKLPLADGGEGTVEAMVEATAGRIVHVEVTGPLGHRVNAFYGLSGDARSAFIEMAAASGLEQVPPAQRDPLKTTSWGTGELIRHALDAGVEHIIIGIGGSATNDGGAGMVQALGARLRDAQGNDIAQGGIGLETLASIDISGLDKRLSACHIEVACDVTNPLTGKEGASAVFGPQKGATPEMIERLDTALTRYAHLIARDLHVDVLDLAGGGAAGGMGAALYAFCGAQLRRGIEIVTDALHLEACLADADLVITGEGRIDSQTIHGKVPIGVANIAKRYNKPVIGIAGSLTADVSVVHEHGLDAVFSVIYTICTLEDALKNASENVRMTARNVAATLKAGQQLR”: the “soluble on expression in E. coli” value is given as “not soluble”.

In the case of “MKIVIGTKIKEQRQQHEWSQQTVAERLHVSRQTISKWELGKSYPDLELLVALSKLFSVSTDELLGLSRRPVQRPWWQLLLRKRSRTDMTVKWYSGGQDRARVAVGIISDLVANLNTTNEQPLRQLLATYYQELLEQRTGSVLGVFDRMNLDISKCLRQQQIKLSPENEQLMQQLVGLNMIYYR”, the “soluble on expression in E. coli” value is listed as “not soluble”.

Consider “MKKEHSPKNKVRHFASVEHLNPEAVAAFVDNELSPAAAHRAKIHLVHCAECREEIHRQRRAADRLRDGNNSDMRPSSDLIAKLQSIAACCPDGPTAEEVPSSPQSLLDKLDGVARNIYKTTKTLREARNEALRQYDR”, for which the “soluble on expression in E. coli” value was “not soluble”.

For the sequence “MKKGLTFSITSAALFFGMNHVASADQIHTVKEDAKLTDIAQTFATTTTEIQNLNHLQNRDYVQVGETIVLPDSDIVEVKDGDTIKAIAERHQMTMNQLYQLNPNLGEVIYPGQLVAVSEKGSAHLNNQLQQIFNSHEAVQPTAQINDDERNKAENNTIRNVRTSGNITPSATQTWQNNDYSASDRQQVSNTTANEQVTSNYQYSPVSHASNGSNYYDWGQCTYYAFDRRQQLGKSVGNLWGNANNWASAAQQSGYQVNNTPEVGAIFQSTAGNYGHVGVVESKNADGSIVVSEMNWQGVGQKSYRTIHNTGQYNYIHLEHHHHHH”, the “soluble on expression in E. coli” value is “not soluble”.

Consider “MKKHIIIKTIPKKEEIISRDLCDCIYYYDNSVICKPIGPSKVYVSTSLENLEKCLQLHYFKKLVKNIEIFDEVHNSKPNCDKCLIVEIGGVYFVRRVNGVPR”, for which the “soluble on expression in E. coli” value was “soluble”.

As to “MKKILLSAAVLLLSLGTYAQNNPTSLPTDIRIKKVVYRENDVIPVHGIPFTTTQIQFAKQERVLDIEGGDTTAWMVTYHPQLENMIFIKPTMFDSKTNMTVITNQRAYYFSLTSAKKLEQEPGKKTYALKFEYPQPQPVNTKNTTPNKTVHPKVVNTAYRFSGSPQLVPRHVFDDGKFTYFELSAQGSVPAIFAVDDQSGKESTVNTRREGKFIVVQRLAPQFTLRQGGLTASVFNTPEINRIRANRRPK”, the “soluble on expression in E. coli” value is “not soluble”.

With “MKKKDRYTISELAREFEISTRTIRYYEEIGLLNPERTPGNQRIFSRKDRAKLKLILRGRRLGFSLEEIREMIEMYDVAGEPEQIRLTLKYGEKKLKEIEEKIRELELLKEDLLNLREMLVKRLEELEKGS”, the “soluble on expression in E. coli” value is recorded as “not soluble”.

In the case of “MKKQKKARLIYNPTSGQEIMKKNVAEVLDILEGFGYETSAFQTTPTKNSARDEATRAAQAGFDLIVAAGGDGTINEVVNGIAPLKRRPKMAIIPTGTTNDFARALKIPRGNPIEATKLIGKNQIVKMDIGQAQEDNYFINIAAAGSLTELTYSVPSQLKTTFGYLAYLAKGVELLPRVRKVPVKITHDKGEFIGDASMIFVAITNSVGGFEQIAPDAKLDDGKFTLILVKTANLIEIMHLIRLVLAGGKHINDKRVEYIKTSYLTIEPLSDERMMINLDGEYGGDAPITLANLKNHIRFFANTDEISDDALVLDKDELAIEAIAQKFANEVDDLEGLGD”, the “soluble on expression in E. coli” value is given as “soluble”.

For the sequence “MKKRAACLCFRSEREDEVLLVSSSRYPDRWIVPGGGMEPEEEPGGAAVREVYEEAGVKGKLGRLLGVFEQNQDPEHRTYVYVLTVTELLEDWEDSVSIGRKREWFKVEDAIKVLQCHKPVHAEYLEKLKAHHHHHH”, the “soluble on expression in E. coli” value was “soluble”.

Regarding “MKKRALVSVSDKTGVVEFVKGLLEQGIEVISTGGTKKLLEENGLQVIGISEVTGFPEIMDGRVKTLHPNIHGGLLAVRDNETHVAQMNELGMEPIDFVVVNLYPFKETIAKPDVTFADAIENIDIGGPTMIRSAAKNHKFVSVIVDPVDYDVVLAELKENGEVAEETKRKLAAKVFRHTAAYDALISNYLTEQMGEESPETLTVTFEKKQDLRYGENPHQKATFYKAPFAATSSVAYAEQLHGKELSYNNINDADAALSIVKEFTEPAVVAVKHMNPCGVGVGTDIHEAYTRAYEADPVSIFGGIIAANREIDKATAEKLHEIFLEIIIAPSFSKEALEVLQSKKNLRLLTVNIEKATSASKKLTSVQGGLLVQEEDTLSLDESTISIPTKREPSEQEWKDLKLAWKVVKHVKSNAIVLAKDDMTIGVGAGQMNRVGSAKIAITQAGEKAQGSALASDAFFPMPDTVEEAAKAGITAIIQPGGSIRDEDSIKVADTYGIAMVFTGVRHFKH”, the “soluble on expression in E. coli” value is recorded as “not soluble”.

Consider “MKKREVIASVKDEKLVKKRRNEMIKGAISLFKQKGFHQTTTREIAKASGFSIGTLYEYIRKKEDVLYLVCDRIYDEVRERTEQDLGAHHGTIEGLRRAIAHYFRVVDELDDEVLVMYQEVKALSKESLPYVLNKELDMAAIFEHILRACVENGALQLSESEIRLFAHNIVVLGQMWAFRRWVLRKMYTLDEYIELQTEFLLKGIMEKQRV”, for which the “soluble on expression in E. coli” value is recorded as “not soluble”.

For the sequence “MKKSSLNNLEYLDISQEVNALQVPNTPFLSYLLGAGKVEAAKSTEIKWREYGMNNDDSSAQLEGGEYADAESDRTWFNNYTEIFRKSTSVSGTLDAINVDGVGNELNSQVALRATEMKIDLNRKLIVGVKADESGSKGRQMNGILNLISSTNKVETAAAGAVTRKDIDALFKTMFQKGYMGEKLCLVAPDMQELMIDQLDEKSTKIVQFGDKLTFGLQLGNIVSNYGSGIALIEPNLPNGTIAAIDTNYVKLRPLREWRAEELAKTTDSRRIGLVGEYSIEYKASNSGAILNLKA”, the “soluble on expression in E. coli” value is on record as “not soluble”.

“MKKVQPLNPEQVKRFLETAKQDPLYPAFLLALGTGLRRGEILGLRWQDLDLQKGILQVRQSLIRTREGLKFEEPKTEKSRRQIPLPPSVVAALKRHKAWVNQNKLILGPDYEDHDLVFPVENGRPRDPKGFAEYFNRLLDKAGLPHIRLHDLRHTHATLLLLEGVHPKVVQERLGHSTVSITLDIYSHILPGLQEKAAERIDGLLQPKENPSPKEGTIKLEHHHHHH”: the “soluble on expression in E. coli” value is recorded as “soluble”.

“MKKVRDPLEVTVVGQNIIVADDNYKWLQILPEKKRYSITVMFDNKGNPLEYYFDINIKNITQKGNARTVDLCLDVLALPSGEYELVDEDDLMFALESEQIT”: the “soluble on expression in E. coli” value is on record as “not soluble”.

As to “MKKWFLLLIASLVGYIAYEDLTVGTLPASSKTPVVRENIGIPAYKVIKIKAGDTLLSIAEREQQGPLPVSIETLIRDFEKLNPEAKADALQIGKTYKIPVYEK”, the “soluble on expression in E. coli” value was “not soluble”.

On to “MKKWLALFVFGMVSLFATSAHAESYETTKTLKVYESRSFNSPVKKELQPGERVYVTNQHPSGWWKISGGFIAPEGAKVEINRTFEAFDWINMDSAKYVFSPQTVIARDGTLRGEILIDTYLGQKWTSVNGMPQIMKQNFAAYSSPEAKNPDAWFAPQTVNILQTKENGWSLINTYLGPKWIVRYPHVEHINRDFYAYNEPKYMHHGVKFSAQSVRVLQQGENGWKKIKAEVGEKWIAPQGSYYHVPNVFTAFDQPFGRAIGTFAPQTVFVVEESTTSFGWLKIRTYLGDSWIRTNRN”, for which the “soluble on expression in E. coli” value was “not soluble”.

With “MKKWLLAAGLGLALATSAQAADKIAIVNMGSLFQQVAQKTGVSNTLENEFKGRASELQRMETDLQAKMKKLQSMKAGSDRTKLEKDVMAQRQTFAQKAQAFEQDRARRSNEERGKLVTRIQTAVKSVANSQDIDLVVDANAVAYNSSDVKDITADVLKQVK”, the “soluble on expression in E. coli” value is on record as “soluble”.

As for “MKKYYVRCKDSKGENASLVIEALSPEHAKEQAYEVYEVGDIYNVSLGEGKSKNCLDRKYSPYIKNDNGKAITIFSLEHHHHHH”, the “soluble on expression in E. coli” value is recorded as “not soluble”.

For “MKLIFLSGVKRSGKDTTADFIMSNYSAVKYQLAGPIKDALAYAWGVFAANTDYPCLTRKEFEGIDYDRETNLNLTKLEVITIMEQAFCYLNGKSPIKGVFVFDDEGKESVNFVAFNKITDVINNIEDQWSVRRLMQALGTDLIVNNFDRMYWVKLFALDYLDKFNSGYDYYIVPDTRQDHEMDAARAMGATVIHVVRPGQKSNDTHITEAGLPIRDGDLVITNDGSLEELFSKIKNTLKVL”, the “soluble on expression in E. coli” value is “soluble”.

Take “MKLLKVAAIAAIVFSGSALAGVVPQYGGGGGNHGGGGNNSGPNSELNIYQYGGGNSALALQADARNSDLTITQHGGGNGADVGQGSDDSSIDLTQRGFGNSATLDQWNGKDSHMTVKQFGGGNGAAVDQTASNSTVNVTQVGFGNNATAHQY”: the “soluble on expression in E. coli” value was “not soluble”.
